# Measured values published in US20030236190A1 (published 2003).
# Non-standard residues stand in square brackets, D forms with d. No end group written: not given here.
# B1: S442 (peptide)
# peptide 1: ESFYDWFERQLGGGGK
# peptide 2: AWVQCEVYGRGCPS
# modifications: not fully specified (bridges); cysteine pairing not given here; also: bond at chain A 16 to a chain's C-terminus
# B2: S440 (peptide)
# peptide 1: ESFYDWFERQLGGGGK
# peptide 2: EWAWVQCEVYGRGCPS
# modifications: not fully specified (bridges); cysteine pairing not given here; also: K16 of chain 1 chemically linked to C-terminus of chain 2 (C-C on a lysine)
# B3: S456 (peptide)
# peptide 1: XGSLDESFYDWFERQLGKK
# peptide 2: XKEWLDQEWAWVQCEVYGRGCPSEE
# modifications: not fully specified; N-terminal Ald
# B4: S439 (peptide)
# peptide 1: ESFYDWFERQLGGGGK
# peptide 2: QEWAWVQCEVYGRGCPS
# modifications: not fully specified (bridges); cysteine pairing not given here; also: K16 of chain 1 chemically linked to C-terminus of chain 2 (C-C on a lysine)
# B5: S441 (peptide)
# peptide 1: ESFYDWFERQLGGGGK
# peptide 2: WAWVQCEVYGRGCPS
# modifications: not fully specified (bridges); cysteine pairing not given here; also: K16 of chain 1 chemically linked to C-terminus of chain 2 (C-C on a lysine)
# Molecular target: human insulin receptor (HIR) (human, UniProt P06213 28-1382, limits assumed)
# Assay: 125I-insulin competition, solubilised HIR
row,Binder,Kd [nM]
1,HHHHHHKLDQEWAWVQCEVYGRGCPSESFYDWFERQLG [S481],13
2,GSLDESFYDWFERQLGGGSGGSWLDQEWAWVQCEVYGRGCPS [S459],0.076
3,GSLDESFYDWFERQLGGGSGGSWLDEEWAQVQCEVYGRGCPS [S543],0.019
4,WLDQEWAWVQCEVYGRGCPSGGSGGSGRVDWLQRNANFYDWFVAELG [S511],3.8
5,SLEEEWAQIECEVYGRGCPSESFYDWFERQL [S557],0.02
6,SIEEEWAQIKCDVWGRGCPSESFYDWFERQL [S517],0.6
7,WLDQEWAWVQCEVYGRGCPSGGSGGSSQAGSAFYAWFDQVLRTV [S512],28
8,B1,160
9,B2,99
10,LDEWAWVQCVEYGRGCPSESFYDWFERQLG [S483],52
11,SLEEEWAQVECEVYGRGCPSGGSGGSGLLDESFYHWFDRQLR [S510],0.062
12,LDQEWAWVQCEVYGRGCPSESFYDWFERQLG [S471],0.67
13,ADQEWAWVQCEVYGRGCPSESFYDWFERQLG [S494],17
14,B3,2.4
15,B4,46
16,WLDQEWAWVQCEVYGRGCPSGGSGGSGSLDESFYDWFERQLG [S457],1.6
17,WLDQEWAWVQCEVYGRGCPSGGSGGSGSLDESFYDWFERQLG [S458],3.2
18,SIEEEWAQIKCDVWGRGCPPGLLDESFYHWFDRQLR [S520],0.02
19,LDQEWAQVQCEVYGRGCPSESFYDWFERQL [S533],0.067
20,LDQEWAWVQCAVYGRGCPSESFYDWFERQL [S502],3

row,Binder,Kd [nM]
1,LDQEWAAVQCEVYGRGCPSESFYDWFERQL [S499],0.62
2,LDQEWAWVQCEAYGRGCPSESFYDWFERQL [S503],2.1
3,LEEEWAQVECEVYGRGCPSESFYDWFERQL [S536],0.083
4,LDQEWAWVQCEVAGRGCPSESFYDWFERQL [S504],13
5,LDQAWAWVQCEVYGRGCPSESFYDWFERQL [S497],2.5
6,LDQEAAWVQCEVYGRGCPSESFYDWFERQL [S498],56
7,LAQEWAWVQCEVYGRGCPSESFYDWFERQL [S495],2.6
8,LDQEWAWVQCVYGRGCPSESFYDWFERQLG [S486],57
9,HLCVLEELFWGASLFGYCSGGSLDESFYDWFERQL [S521],27
10,WLDQEWAWVQCEVYGRGCPSDSDWAGYEWFEEQLD [S523],4.3
11,B5,120
12,RLEEEWAWVQCEVYGRGCPSGSLDESFYDWFERQLG [S518],0.16
13,SLELEWAQVECEVYGRGCPSGSLDESFYDWFERQLG [S539],0.098
14,SLEHEWAQVECEVYGRGCPSGSLDESFYDWFERQLG [S537],0.044
15,SLEQEWAQVECEVYGRGCPSGSLDESFYDWFERQLG [S538],0.038
16,SLEEEWAQVECEVWGRGCPSGSLDESFYDWFERQLG [S541],0.0078
17,SLEEEWAQVECEVYGRGCPSGSLDESFYH[dW]FERQLG (cysteine pairing not given here) [S542],0.027
18,SLEEEWAQVKCEVYGRGCPSGSLDESFYDWFERQLG [S540],0.013
19,SLEEEWAQVEAEVYGRGAPSGSLDESFYDWFERQLG [S551],0.072
